The values below are quoted from earlier work in article PMC4298871.

Broadly, the Kd is the concentration at which binding is half-saturated.

This data set has as its target M6P/IGF-IIR (Homo sapiens) (UniProt P11717). The data set can be described thus: SPR. On the technique in general: SPR reads the build-up and loss of mass on a sensor chip optically.
UniProt P11717, sequence (P11717 41-2491): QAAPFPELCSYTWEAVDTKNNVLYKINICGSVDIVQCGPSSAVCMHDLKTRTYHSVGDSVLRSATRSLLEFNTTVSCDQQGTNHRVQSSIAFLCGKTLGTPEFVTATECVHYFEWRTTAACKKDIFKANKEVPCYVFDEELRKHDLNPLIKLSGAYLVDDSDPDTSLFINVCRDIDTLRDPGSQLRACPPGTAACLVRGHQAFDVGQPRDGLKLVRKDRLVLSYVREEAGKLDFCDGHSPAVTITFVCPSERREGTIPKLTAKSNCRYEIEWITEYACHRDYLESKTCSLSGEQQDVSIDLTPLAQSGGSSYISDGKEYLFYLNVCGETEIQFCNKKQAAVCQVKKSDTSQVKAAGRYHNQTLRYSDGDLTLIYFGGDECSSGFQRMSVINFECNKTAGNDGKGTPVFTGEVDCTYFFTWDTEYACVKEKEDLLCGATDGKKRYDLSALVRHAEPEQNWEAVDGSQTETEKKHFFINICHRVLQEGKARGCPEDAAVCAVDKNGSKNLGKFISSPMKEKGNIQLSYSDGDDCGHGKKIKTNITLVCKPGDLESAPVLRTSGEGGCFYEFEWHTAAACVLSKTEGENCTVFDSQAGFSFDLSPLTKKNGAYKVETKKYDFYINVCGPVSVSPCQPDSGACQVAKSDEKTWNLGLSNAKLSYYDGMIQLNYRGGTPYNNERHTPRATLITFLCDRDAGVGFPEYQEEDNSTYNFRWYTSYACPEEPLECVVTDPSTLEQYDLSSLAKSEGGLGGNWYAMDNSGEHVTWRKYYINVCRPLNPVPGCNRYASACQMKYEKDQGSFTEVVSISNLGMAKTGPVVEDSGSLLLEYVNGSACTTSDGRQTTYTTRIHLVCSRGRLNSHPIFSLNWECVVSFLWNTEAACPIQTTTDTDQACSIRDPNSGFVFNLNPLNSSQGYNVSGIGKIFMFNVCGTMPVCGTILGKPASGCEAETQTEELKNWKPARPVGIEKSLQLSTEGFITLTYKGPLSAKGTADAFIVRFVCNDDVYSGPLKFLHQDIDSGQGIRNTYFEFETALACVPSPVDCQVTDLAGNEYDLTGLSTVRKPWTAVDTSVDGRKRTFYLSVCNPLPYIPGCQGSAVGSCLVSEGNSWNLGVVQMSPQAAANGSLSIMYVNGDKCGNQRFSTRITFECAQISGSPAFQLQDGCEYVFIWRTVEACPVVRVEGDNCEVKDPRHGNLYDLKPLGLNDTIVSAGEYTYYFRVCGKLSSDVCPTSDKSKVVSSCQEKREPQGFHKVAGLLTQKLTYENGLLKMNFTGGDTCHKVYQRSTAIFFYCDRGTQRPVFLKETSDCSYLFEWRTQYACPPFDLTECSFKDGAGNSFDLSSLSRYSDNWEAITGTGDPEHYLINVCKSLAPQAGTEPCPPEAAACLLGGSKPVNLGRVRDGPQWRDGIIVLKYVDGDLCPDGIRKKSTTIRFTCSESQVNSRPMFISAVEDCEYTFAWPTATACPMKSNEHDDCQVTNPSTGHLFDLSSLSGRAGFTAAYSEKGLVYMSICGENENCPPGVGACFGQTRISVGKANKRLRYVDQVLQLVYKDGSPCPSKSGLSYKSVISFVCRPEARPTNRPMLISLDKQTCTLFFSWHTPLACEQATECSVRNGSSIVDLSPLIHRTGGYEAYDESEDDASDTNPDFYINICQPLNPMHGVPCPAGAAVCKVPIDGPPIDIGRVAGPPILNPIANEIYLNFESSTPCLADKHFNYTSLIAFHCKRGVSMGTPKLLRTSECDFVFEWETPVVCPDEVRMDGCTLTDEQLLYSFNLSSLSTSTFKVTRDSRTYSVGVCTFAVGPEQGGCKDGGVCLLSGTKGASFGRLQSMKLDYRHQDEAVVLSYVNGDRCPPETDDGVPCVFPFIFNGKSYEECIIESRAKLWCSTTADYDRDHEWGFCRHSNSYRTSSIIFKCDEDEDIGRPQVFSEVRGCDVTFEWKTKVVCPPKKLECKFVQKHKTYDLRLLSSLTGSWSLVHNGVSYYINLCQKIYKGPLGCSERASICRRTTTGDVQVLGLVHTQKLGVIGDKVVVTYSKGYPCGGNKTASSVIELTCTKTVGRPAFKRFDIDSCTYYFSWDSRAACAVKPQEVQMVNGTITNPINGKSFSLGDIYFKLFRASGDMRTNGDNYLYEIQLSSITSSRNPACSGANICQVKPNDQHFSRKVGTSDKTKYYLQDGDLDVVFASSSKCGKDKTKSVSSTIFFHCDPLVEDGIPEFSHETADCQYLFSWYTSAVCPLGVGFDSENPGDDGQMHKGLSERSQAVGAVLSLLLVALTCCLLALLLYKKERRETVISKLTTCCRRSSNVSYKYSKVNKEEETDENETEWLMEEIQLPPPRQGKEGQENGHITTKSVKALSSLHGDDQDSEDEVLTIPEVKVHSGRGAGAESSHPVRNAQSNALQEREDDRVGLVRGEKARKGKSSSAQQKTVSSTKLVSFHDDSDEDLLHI

For DPP-4 (from UniProt P27487), the Kd is 35.9 µM.
